What is called Kd is the constant that tells how readily two partners part at equilibrium. As usually defined, the stoichiometry N is a count of units in the complex or per binding partner.

One data set concerns the target FtsA (E. coli) (UniProt P0ABH0). The data set is described as follows: co-sedimentation.
Data set [1] deals with FtsA (Escherichia coli, UniProt P0ABH0, K86A). As to the kind of experiment: mant fluorescence titration. It counts as binding.
The target in data set [2] is T1, FtsA (Escherichia coli, UniProt P0ABH0).
T1 sequence (P0ABH0 1-420): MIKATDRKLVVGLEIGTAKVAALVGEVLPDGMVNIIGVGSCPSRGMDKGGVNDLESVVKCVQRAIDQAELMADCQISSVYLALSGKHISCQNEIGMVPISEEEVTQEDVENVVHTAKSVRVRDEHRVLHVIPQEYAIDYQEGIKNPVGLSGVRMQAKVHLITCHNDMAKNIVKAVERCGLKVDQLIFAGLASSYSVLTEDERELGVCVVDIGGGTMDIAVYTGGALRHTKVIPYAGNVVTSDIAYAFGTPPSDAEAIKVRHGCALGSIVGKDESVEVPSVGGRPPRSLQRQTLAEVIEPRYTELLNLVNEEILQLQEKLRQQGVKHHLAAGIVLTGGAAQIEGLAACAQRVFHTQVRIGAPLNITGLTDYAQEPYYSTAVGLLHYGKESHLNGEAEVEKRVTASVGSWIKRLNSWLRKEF
As to the kind of experiment: mant fluorescence titration. It counts as binding.

For data set [3], the target named is T2, FtsA (E. coli, UniProt P0ABH0 1-420).
T2 sequence (looked up): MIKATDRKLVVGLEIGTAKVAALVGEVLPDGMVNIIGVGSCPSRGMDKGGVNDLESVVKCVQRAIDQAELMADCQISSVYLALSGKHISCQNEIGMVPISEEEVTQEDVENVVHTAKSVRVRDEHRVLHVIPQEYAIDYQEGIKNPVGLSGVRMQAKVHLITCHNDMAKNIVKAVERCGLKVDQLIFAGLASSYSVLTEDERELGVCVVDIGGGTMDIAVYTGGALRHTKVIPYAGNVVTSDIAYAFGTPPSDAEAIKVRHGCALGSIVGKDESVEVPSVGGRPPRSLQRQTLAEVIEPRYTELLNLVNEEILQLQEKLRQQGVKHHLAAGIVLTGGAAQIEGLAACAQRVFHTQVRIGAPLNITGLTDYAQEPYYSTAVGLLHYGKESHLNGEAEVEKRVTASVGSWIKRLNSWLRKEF
The data set is described as follows: confocal fluorescence microscopy of recruitment to vesicles in vitro.

Data set [4] deals with the molecule itself. As to the kind of experiment: sedimentation of polymers by ultracentrifugation.
The data set “SEC” concerns the molecule itself. The data set is described as follows: SEC. On the technique in general: Size exclusion chromatography separates by hydrodynamic size, large species first.

Chain of FtsA (Escherichia coli, UniProt P0ABH0, K86A) (P0ABH0 whole entry K86A): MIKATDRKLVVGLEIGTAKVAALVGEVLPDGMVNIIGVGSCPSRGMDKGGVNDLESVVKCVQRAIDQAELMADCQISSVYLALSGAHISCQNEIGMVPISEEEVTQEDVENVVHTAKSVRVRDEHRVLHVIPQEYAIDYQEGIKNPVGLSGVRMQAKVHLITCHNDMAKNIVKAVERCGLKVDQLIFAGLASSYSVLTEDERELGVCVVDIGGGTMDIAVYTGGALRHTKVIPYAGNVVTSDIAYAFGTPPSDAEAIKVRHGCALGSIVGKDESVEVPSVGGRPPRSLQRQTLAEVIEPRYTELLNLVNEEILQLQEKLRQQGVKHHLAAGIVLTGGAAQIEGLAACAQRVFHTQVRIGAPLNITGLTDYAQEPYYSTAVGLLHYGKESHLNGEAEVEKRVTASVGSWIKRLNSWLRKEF

“FtsZ(R379E) (from UniProt P0A9A6 1-383) (natural protein)”: the percent of FtsZ in the pellet with FtsA (E. coli) was 35.6%. For the molecule `CNc1ccccc1C(=O)O[C@H]1[C@@H](O)[C@H](n2cnc3c(N)ncnc32)O[C@@H]1CO[P@@](=O)(O)O[P@](=O)(O)OP(=O)(O)O` [mant-ATP], the Kd was found to be 27.9 ± 0.5 µM on FtsA [1] and 26.2 ± 3 µM at FtsA [2].

B1: FL-FtsZ (natural protein, E. coli, UniProt P0A9A6 1-383, looked up)
chain: MFEPMELTNDAVIKVIGVGGGGGNAVEHMVRERIEGVEFFAVNTDAQALRKTAVGQTIQIGSGITKGLGAGANPEVGRNAADEDRDALRAALEGADMVFIAAGMGGGTGTGAAPVVAEVAKDLGILTVAVVTKPFNFEGKKRMAFAEQGITELSKHVDSLITIPNDKLLKVLGRGISLLDAFGAANDVLKGAVQGIAELITRPGLMNVDFADVRTVMSEMGYAMMGSGVASGEDRAEEAAEMAISSPLLEDIDLSGARGVLVNITAGFDLRLDEFETVGNTIRAFASDNATVVIGTSLDPDMNDELRVTVVATGIGMDKRPEITLVTNKQVQQPVMDRYQQHGMAPLTQEQKPVAKVVNDNAPQTAKEPDYLDIPAFLRKQAD
modifications: Alexa Fluor 488 label
Regarding B1, in the data set with FtsA [3], the binding result is recorded as “binds”.

B2: FtsZ (natural protein, E. coli, UniProt P0A9A6 1-383, looked up)
chain: MFEPMELTNDAVIKVIGVGGGGGNAVEHMVRERIEGVEFFAVNTDAQALRKTAVGQTIQIGSGITKGLGAGANPEVGRNAADEDRDALRAALEGADMVFIAAGMGGGTGTGAAPVVAEVAKDLGILTVAVVTKPFNFEGKKRMAFAEQGITELSKHVDSLITIPNDKLLKVLGRGISLLDAFGAANDVLKGAVQGIAELITRPGLMNVDFADVRTVMSEMGYAMMGSGVASGEDRAEEAAEMAISSPLLEDIDLSGARGVLVNITAGFDLRLDEFETVGNTIRAFASDNATVVIGTSLDPDMNDELRVTVVATGIGMDKRPEITLVTNKQVQQPVMDRYQQHGMAPLTQEQKPVAKVVNDNAPQTAKEPDYLDIPAFLRKQAD
On to B2, for which, in data set [4], the binding result is “binds”.

B3: FtsZ(R379E) (natural protein, E. coli, UniProt P0A9A6 1-383, looked up)
chain: MFEPMELTNDAVIKVIGVGGGGGNAVEHMVRERIEGVEFFAVNTDAQALRKTAVGQTIQIGSGITKGLGAGANPEVGRNAADEDRDALRAALEGADMVFIAAGMGGGTGTGAAPVVAEVAKDLGILTVAVVTKPFNFEGKKRMAFAEQGITELSKHVDSLITIPNDKLLKVLGRGISLLDAFGAANDVLKGAVQGIAELITRPGLMNVDFADVRTVMSEMGYAMMGSGVASGEDRAEEAAEMAISSPLLEDIDLSGARGVLVNITAGFDLRLDEFETVGNTIRAFASDNATVVIGTSLDPDMNDELRVTVVATGIGMDKRPEITLVTNKQVQQPVMDRYQQHGMAPLTQEQKPVAKVVNDNAPQTAKEPDYLDIPAFLEKQAD
With B3, in data set [4], the binding result is reported as “binds”.

B4: FtsA(ΔMTS) (domain or fragment, E. coli, UniProt P0ABH0 1-404, looked up)
chain: MIKATDRKLVVGLEIGTAKVAALVGEVLPDGMVNIIGVGSCPSRGMDKGGVNDLESVVKCVQRAIDQAELMADCQISSVYLALSGKHISCQNEIGMVPISEEEVTQEDVENVVHTAKSVRVRDEHRVLHVIPQEYAIDYQEGIKNPVGLSGVRMQAKVHLITCHNDMAKNIVKAVERCGLKVDQLIFAGLASSYSVLTEDERELGVCVVDIGGGTMDIAVYTGGALRHTKVIPYAGNVVTSDIAYAFGTPPSDAEAIKVRHGCALGSIVGKDESVEVPSVGGRPPRSLQRQTLAEVIEPRYTELLNLVNEEILQLQEKLRQQGVKHHLAAGIVLTGGAAQIEGLAACAQRVFHTQVRIGAPLNITGLTDYAQEPYYSTAVGLLHYGKESHLNGEAEVEKRVTAS
On to B4, for which the “stoichiometry N” value in “SEC” is 2.

The values are drawn from publication PMC5796856 (Molecular microbiology, 2018).
